This test deals with calcineurin (recombinant or partly purified, phosphoserine phosphatase assay). Description: cell-based or functional assay.

Consider “recombinant human CuZnSOD mutation G93A (from UniProt P00441 2-154) (enzyme)”, for which the Percentage of FK506 inhibitable RII-phosphopeptide activity after 20 min compared with the activity at 0 min; constant activity (1.67 U) was found to be 21% and the Percentage of FK506 inhibitable RII-phosphopeptide activity after 20 min compared with the activity at 0 min; constant protein (3 ug) was determined as 16%.
With “recombinant human wild-type CuZnSOD (from UniProt P00441 2-154) (enzyme)”, the Percentage of FK506 inhibitable RII-phosphopeptide activity after 20 min compared with the activity at 0 min; constant activity (1.67 U) was found to be 56%, the Percentage of FK506 inhibitable RII-phosphopeptide activity after 20 min compared with the activity at 0 min; constant protein (3 ug) is 70% and the protection of calcineurin after calcium induced redox inactivation was 50 to 100%.
For “recombinant human CuZnSOD mutation A4V (from UniProt P00441 2-154) (enzyme)”, the Percentage of FK506 inhibitable RII-phosphopeptide activity after 20 min compared with the activity at 0 min; constant activity (1.67 U) was found to be 8% and the Percentage of FK506 inhibitable RII-phosphopeptide activity after 20 min compared with the activity at 0 min; constant protein (3 ug) worked out at 22%.
On the same counts, the results for “recombinant human CuZnSOD mutation D90A (from UniProt P00441 2-154) (enzyme)” are 32% and 42%.
For the substance “purified human erythrocyte CuZnSOD (Sigma Aldrich) (from UniProt P00441 2-154) (enzyme)”, the Percentage of FK506 inhibitable RII-phosphopeptide activity after 20 min compared with the activity at 0 min; constant activity (1.67 U) stood at 57%, the Percentage of FK506 inhibitable RII-phosphopeptide activity after 20 min compared with the activity at 0 min; constant protein (3 ug) was 57% and the protection of calcineurin after calcium induced redox inactivation fell in the range of 50 to 100%.
